The term kcat denotes the maximal rate divided by the concentration of active sites. By Km is commonly meant the substrate concentration at which the rate is half of its maximum. As usually defined, the kcat/Km is the turnover number divided by the Michaelis constant.

Settings in all cases: Homo sapiens
Substrate in series [1]: CC[C@H](C)[C@H](NC(=O)[C@@H](NC(=O)[C@@H]1CCCN1C(=O)[C@H](CC(=O)O)NC(C)=O)[C@@H](C)O)C(=O)N[C@@H](Cc1cc(=O)oc2cc(OP(=O)(O)O)ccc12)C(=O)N1CCC[C@H]1C(=O)N[C@H](C(=O)N[C@@H](CC(C)C)C(=O)N[C@@H](CC(=O)O)C(N)=O)C(C)C
Description: (§1) Substrate activity at SHP2 (unknown origin) expressed in Escherichia coli BL21 (DE3) assessed as Kcat incubated for 60 mins by fluorescence based assay
Substrate in series [2]: CC[C@H](C)[C@H](NC(=O)[C@@H](NC(=O)[C@H](CC(=O)O)NC(=O)[C@H](CC(=O)O)NC(C)=O)[C@@H](C)O)C(=O)N[C@@H](Cc1cc(=O)oc2cc(OP(=O)(O)O)ccc12)C(=O)N[C@@H](CC(=O)O)C(=O)N[C@H](C(=O)N[C@@H](CC(C)C)C(=O)N[C@@H](CC(=O)O)C(N)=O)C(C)C
Description: as §1
Substrate in series [3]: CC[C@H](C)[C@H](NC(=O)[C@@H](NC(=O)[C@@H]1CCCN1C(=O)[C@H](CC(=O)O)NC(C)=O)[C@@H](C)O)C(=O)N[C@@H](Cc1cc(=O)oc2cc(OP(=O)(O)O)ccc12)C(=O)N1CCC[C@H]1C(=O)N[C@H](C(=O)N[C@@H](CC(C)C)C(=O)N[C@@H](CC(=O)O)C(N)=O)C(C)C
This is another data set of the same source.
Description: (§2) Substrate activity at SHP2 (unknown origin) expressed in Escherichia coli BL21 (DE3) assessed as Km incubated for 60 mins by fluorescence based assay

Substrate in series [4]: CC[C@H](C)[C@H](NC(=O)[C@@H](NC(=O)[C@H](CC(=O)O)NC(=O)[C@H](CC(=O)O)NC(C)=O)[C@@H](C)O)C(=O)N[C@@H](Cc1cc(=O)oc2cc(OP(=O)(O)O)ccc12)C(=O)N[C@@H](CC(=O)O)C(=O)N[C@H](C(=O)N[C@@H](CC(C)C)C(=O)N[C@@H](CC(=O)O)C(N)=O)C(C)C
The source holds these as a separate data set.
Description: as §2

Substrate in series [5]: CC[C@H](C)[C@H](NC(=O)[C@@H](NC(=O)[C@@H]1CCCN1C(=O)[C@H](CC(=O)O)NC(C)=O)[C@@H](C)O)C(=O)N[C@@H](Cc1cc(=O)oc2cc(OP(=O)(O)O)ccc12)C(=O)N1CCC[C@H]1C(=O)N[C@H](C(=O)N[C@@H](CC(C)C)C(=O)N[C@@H](CC(=O)O)C(N)=O)C(C)C
This is another data set of the same source.
Description: (§3) Substrate activity at SHP2 (unknown origin) expressed in Escherichia coli BL21 (DE3) assessed as Kcat/Km ratio incubated for 60 mins by fluorescence based assay

Substrate in series [6]: CC[C@H](C)[C@H](NC(=O)[C@@H](NC(=O)[C@H](CC(=O)O)NC(=O)[C@H](CC(=O)O)NC(C)=O)[C@@H](C)O)C(=O)N[C@@H](Cc1cc(=O)oc2cc(OP(=O)(O)O)ccc12)C(=O)N[C@@H](CC(=O)O)C(=O)N[C@H](C(=O)N[C@@H](CC(C)C)C(=O)N[C@@H](CC(=O)O)C(N)=O)C(C)C
Description: as §3
This is another data set of the same source.

B1: Tyrosine-protein phosphatase non-receptor type 11 (Homo sapiens), Q06124 (protein)
chain: MTSRRWFHPNITGVEAENLLLTRGVDGSFLARPSKSNPGDFTLSVRRNGAVTHIKIQNTGDYYDLYGGEKFATLAELVQYYMEHHGQLKEKNGDVIELKYPLNCADPTSERWFHGHLSGKEAEKLLTEKGKHGSFLVRESQSHPGDFVLSVRTGDDKGESNDGKSKVTHVMIRCQELKYDVGGGERFDSLTDLVEHYKKNPMVETLGTVLQLKQPLNTTRINAAEIESRVRELSKLAETTDKVKQGFWEEFETLQQQECKLLYSRKEGQRQENKNKNRYKNILPFDHTRVVLHDGDPNEPVSDYINANIIMPEFETKCNNSKPKKSYIATQGCLQNTVNDFWRMVFQENSRVIVMTTKEVERGKSKCVKYWPDEYALKEYGVMRVRNVKESAAHDYTLRELKLSKVGQGNTERTVWQYHFRTWPDHGVPSDPGGVLDFLEEVHHKQESIMDAGPVVVHCSAGIGRTGTFIVIDILIDIIREKGVDCDIDVPKTIQMVRSQRSGMVQTEAQYRFIYMAVQHYIETLQRRIEEEQKSKRKGHEYTNIKYSLADQTSGDQSPLPPCTPTPPCAEMREDSARVYENVGLMQQQKSFR
For the protein B1, the figures for the turnover number (kcat) in series [1] and in series [2] were 0.0045 s⁻¹ and 0.059 s⁻¹, respectively. The Km in series [3] was 700 µM; in series [4] it was 220 µM. Besides, the kcat/Km in series [5] is 6 to 6.4 M⁻¹ s⁻¹; in series [6] it was 270 M⁻¹ s⁻¹.

The values above are taken from ChEMBL document CHEMBL4433268, “Rational design of a SHP-2 targeted, fluorogenic peptide substrate” (Bioorg Med Chem Lett, 2019).
